Here are results for 167 variants from the RNAGym collection of RNA variant scans (doi:10.7554/elife.90254).

B1: LINE1-full (parent)
chain: UACGUAGGUGGUUUUCCCCUGAUAGUGCUAAGGGGGCCUGGAAGUUUGGACUGGGCAGAGCUCAACACAGCGUGGCAAAGUGGCUGUGGCUAGACUGCCUCUCUGGAUUCCUCGUCACUCAGCAGGGCAUCUCUGAGAGAAAUGCC

The variants in this series derive from B1. Kind of series: self-cleavage, relative activity (ratio to wild type); higher = more cleavage; in vitro, sequencing; the parent is a self-cleaving ribozyme.
For the variant C71U U115A, the self-cleavage turned out to be 0.85. For U73A A140G, the self-cleavage was determined as 1.69. To A67U U87C belongs 0.21; to G72A A142G, 1.27; to C68A A124G, 0.05. To A69U U134C belongs 0.09. Turning to A69C U104C, the self-cleavage amounted to 0.22. The result for A69G G88C reads 0.06; that for C71G U130C, 0.45. The result for C71U A77U reads 0.7; that for G72U U87C, 0.32; that for A69U U115C, 0.07.

Take A69U U115A: the self-cleavage stood at 0.07. To A67U U109A belongs 0.11. The result for A67U U109C reads 0.04. In the case of C71U A117G, the self-cleavage was determined as 0.64. As for A69G G122A, the self-cleavage is 0.4. Consider A69G U108A, for which the self-cleavage is 0.07. To A69C U143A belongs 0.07.

Regarding A69C U143G, the self-cleavage stood at 0. To G72A G135U belongs 1.2; to C68U A124U, 0.28. To C68U U112C belongs 0.06; to A69U A94U, 0.05. As to C71U U100A, the self-cleavage stood at 0.04. In the case of C71U U100C, the self-cleavage is 1.31. The result for U73A A94U reads 0.27; that for G72U A107C, 2.15.

With A67U C131A, the self-cleavage is 0.13. To A69U C146U belongs 0.08.

Take A69G C123G: the self-cleavage was found to be 0.84. For the variant G72C A94G, the self-cleavage stood at 0.18.

For the variant U73A A138U, the self-cleavage turned out to be 1.72. For the variant U73A A138G, the self-cleavage stood at 1.75.

On to A67U G105U, for which the self-cleavage came to 0.12. With A69G U115A, the self-cleavage was found to be 0.25. Regarding A69G U115C, the self-cleavage was determined as 0.88. To A69G U115G belongs 0.57; to A69U U87C, 0.06. For A69U U87A, the self-cleavage is 0.04.

In the case of G70A A142G, the self-cleavage came to 0.11. To A69G A124G belongs 0.32; to C68U A142G, 0.14.

Regarding C71U C146U, the self-cleavage stood at 0.66. The result for C71A U73C reads 0.31; that for A67U U85C, 0.01.

On to A69G A136U, for which the self-cleavage was 0.45. A69G A136G: the self-cleavage worked out at 0.42.

With G72U C116A, the self-cleavage was 1.23.

C71A U134A: the self-cleavage is 0.18. To G72U C145G belongs 0.94. The result for A69U G93A reads 0.03; that for G72A A124U, 1.22. The result for G72A A124G reads 0.52. As to G72A U87A, the self-cleavage was found to be 0.07. As to C68U U109A, the self-cleavage was 0.21. U73A G88A: the self-cleavage worked out at 0.07.

As for G72C U73C, the self-cleavage was 1.13. To C71U A138G belongs 1.21; to G72A U109A, 1.37. Take G72A U102A: the self-cleavage was found to be 1.66. On to A69G C98U, for which the self-cleavage is 0.04. The result for U73A A129G reads 1.67; that for U73A A129U, 1.7. To G70A A138C belongs 0.32. To A69G A142G belongs 0.5; to A69G A142U, 0.35. With U73A U104A, the self-cleavage turned out to be 1.09. To U73A U104C belongs 1.53.

Regarding A69C A138G, the self-cleavage came out at 0.16. To C68G A121C belongs 0.03; to A67U A142U, 0.14; to A69U A141G, 0.07.

A69U G97A: the self-cleavage stood at 0.03. As for U73A A124G, the self-cleavage was 1.03. To U73A A124C belongs 2.02; to C68U A77G, 0.24.

A69G G74A: the self-cleavage amounted to 0.49.

G72C A77G: the self-cleavage turned out to be 2.28. The result for C71U G144A reads 1.27. On to U73A C110A, for which the self-cleavage was found to be 0.94. In the case of A69U U132C, the self-cleavage was 0.07. As to A69U U132A, the self-cleavage worked out at 0.06.

For the variant A69G U96C, the self-cleavage is 0.16.

Turning to A69G U96A, the self-cleavage is 0.04. C68U U108A: the self-cleavage was 0.2. To C68U U108C belongs 0.32; to A69G U81G, 0; to U73A C123U, 1.3. To A67U U115C belongs 0.34. The result for G72A A121U reads 1.52; that for G72A A121G, 1.02. Take C68A A69G: the self-cleavage came out at 0.07.

U73A U108A: the self-cleavage was 1.42. Consider A69U A121G, for which the self-cleavage was found to be 0.05. To A69U A121U belongs 0.05.

Consider A69G, for which the self-cleavage amounted to 0.5. To A69C belongs 0.07; to A69U, 0.06; to C71U U73C, 0.1. Regarding C71U U73A, the self-cleavage is 0.31. Take U73A U85C: the self-cleavage is 0.1. With U73A U85A, the self-cleavage stood at 0.05. To A69G A121C belongs 0.51; to A69G A121G, 0.6; to A69G A121U, 0.62. The result for C68U U87C reads 0.02; that for C71A, 0.2; that for C71G, 0.27. To C71U belongs 0.86; to A69C U119A, 0.04; to A69G G72A, 0.54. Turning to A69G U130A, the self-cleavage was determined as 0.39.

Turning to A69G U130C, the self-cleavage amounted to 0.67.

Take A69U U100C: the self-cleavage amounted to 0.08. To A67U U108A belongs 0.16. With A69U G72A, the self-cleavage was determined as 0.04. The result for U73A G80A reads 2.16; that for C68U A117G, 0.12; that for C68U A117U, 0.25. In the case of A69G C103A, the self-cleavage came to 0.43. The result for C71G A124G reads 0.25; that for A69G C95U, 0.06. Turning to A69G C95A, the self-cleavage was determined as 0. C68U A141G: the self-cleavage was found to be 0.3. To A69U C131A belongs 0.07; to A69U C131U, 0.03; to A69C A142G, 0.11.

Regarding U73A A77U, the self-cleavage is 0.69. With C71A U96A, the self-cleavage was determined as 0.09.

In the case of A67U C146A, the self-cleavage worked out at 0.14. A67U C103A: the self-cleavage was found to be 0.15. The result for G70A U73A reads 0.09; that for A69U A124C, 0.02.

On to A67U U112A, for which the self-cleavage stood at 0.13. Turning to C71U U109A, the self-cleavage turned out to be 0.41. As for U73A A117C, the self-cleavage came to 1.99. To U73A A117G belongs 1.4; to G72A A140G, 1.16; to A69U G89A, 0.04.

A69U G89U: the self-cleavage came out at 0.02.

In the case of G72A A129G, the self-cleavage amounted to 1.67. Take U73A G139A: the self-cleavage was 1.47. The result for A69C C71A reads 0.16; that for A67U U119C, 0.19; that for U73A C98U, 0.32. In the case of A69U U73G, the self-cleavage is 0.31. The result for A69U U73C reads 0.05; that for A69U U73A, 0.04; that for A69G C118U, 0.2. Take A69G C118A: the self-cleavage is 0.51.

A69C U130C: the self-cleavage was found to be 0.36. To C68U G122U belongs 0.21.

For the variant G72A U100C, the self-cleavage worked out at 0.32.

With G72A U100A, the self-cleavage was 0.18. To G72A G105U belongs 1.29; to U73A, 1.46. For the variant G72U U130A, the self-cleavage is 1.07. As to G70A U132G, the self-cleavage was 0.19. Take C68A U109C: the self-cleavage came to 0.06. Regarding G72U A140G, the self-cleavage is 0.6. To G72A G83A belongs 1.53; to A67U C128U, 0.1; to G72U A77G, 2.19.

Turning to A67U U143C, the self-cleavage came out at 0.2.

Consider C71U U119C, for which the self-cleavage was determined as 1.18.

For the variant C71G A141G, the self-cleavage came to 0.4.
